Reference: publication PMC3262836

Biological target: Archeoglobus fulgidus HypB (A. fulgidus)
Assay: SEC-MALS; SEC/LS, Superdex-75 HR10/30, 100 uL at 3 mg/mL, with 1 mM GMPPNP (GTP analog), 50 mM Tris pH 7.5, 0.1 M NaCl, 5 mM MgCl2, 1 mM TCEP, room temperature; monomer to dimer

stoichiometry N: 2
Substance: Archeoglobus fulgidus HypB (natural protein)
